From article doi:10.1101/2023.08.13.546412 (bioRxiv, 2023) come the findings set out here.

The target of the test is T1, GST-AtSK21 (Arabidopsis thaliana, UniProt Q39011 1-380).
T1 sequence (looked up): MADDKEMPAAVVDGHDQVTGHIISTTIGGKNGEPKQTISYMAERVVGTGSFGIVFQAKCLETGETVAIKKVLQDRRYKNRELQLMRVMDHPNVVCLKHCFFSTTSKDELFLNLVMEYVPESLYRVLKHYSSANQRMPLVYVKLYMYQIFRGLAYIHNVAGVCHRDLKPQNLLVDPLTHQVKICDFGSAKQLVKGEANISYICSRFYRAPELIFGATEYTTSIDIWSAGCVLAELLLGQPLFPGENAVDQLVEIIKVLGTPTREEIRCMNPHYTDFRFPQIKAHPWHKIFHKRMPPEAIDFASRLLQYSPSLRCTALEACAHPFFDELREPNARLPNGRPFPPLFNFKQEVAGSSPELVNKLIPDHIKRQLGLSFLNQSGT
In words: pull-down.

B1: MBP-WOX5 (natural protein, Arabidopsis thaliana, UniProt Q8H1D2 1-182, looked up)
chain: MSFSVKGRSLRGNNNGGTGTKCGRWNPTVEQLKILTDLFRAGLRTPTTDQIQKISTELSFYGKIESKNVFYWFQNHKARERQKRRKISIDFDHHHHQPSTRDVFEISEEDCQEEEKVIETLQLFPVNSFEDSNSKVDKMRARGNNQYREYIRETTTTSFSPYSSCGAEMEHPPPLDLRLSFL
For the molecule B1, the binding result is recorded as “binds”.
